In US20220204630A1 (SUNSHINE LAKE PHARMA, published 2022):
One block for each binder: values may come before it.

Tests used:
[1] = molecular target: T1, Mouse-TrKA protein (mouse, UniProt Q3UFB7 34-420, limits assumed); assay: ELISA, hybridoma supernatant on Mouse-TrKA
T1 construct: also called Mouse-TrKA receptor
From the text: The binding of monoclonal antibodies produced by the supernatant of each positive clone to the Mouse-TrKA receptor was detected by ELISA method, and the human-mouse cross reaction of positive clones producing monoclonal antibodies was detected. In FIG. 3, the OD₄₅₀ value reflects the strength of the binding of the antibody to the protein. The larger the reading, the stronger the binding of the antibody to the protein. […] It can be seen that clones 23E12, 21E5, 15D4, and 27H3 can produce monoclonal antibodies that bind to both Human-TrKA and Mouse-TrKA, and there is a human-mouse cross reaction.

[2] = molecular target: T2, TrkA protein on HEK-293T-TrkA cells or NIH-3T3-TrkA cells (human, UniProt P04629 33-796); assay: flow cytometry competition: antibody titrated against biotinylated NGF binding to HEK-293T-TrkA cells, % parent
T2 construct: whole, on cells; Printed only as TrkA for these cells; also called TrkA protein on the membrane of NIH-3T3-TrkA cells

[3] = molecular target: T2, TrkA protein on HEK-293T-TrkA cells or …; assay: flow cytometry, antibody titrated on HEK-293T-TrKA cells, Parent %
From the text: (§1) In FIG. 7, the EC₅₀ (half-binding concentration) value reflects the affinity of the antibody. The smaller the EC₅₀ value, the higher the affinity of the antibody.

[4] = molecular target: T3, TRKA protein with a histidine tag (human, UniProt P04629 33-423, limits assumed); assay: BLI (Fortebio Octet RED96), His-tagged TRKA on Ni-NTA sensor, antibody 80-2.93 nM
T3 construct: it is put last here only for order; also called TRKA (50 µg/ml, 75 kDa, provided by HEC Labs); not shown: histidine tag
Description: They were added to each well of the sample plate. […] The KD value is the equilibrium dissociation constant between the antibody and its antigen, and the KD value is inversely proportional to the affinity. The KD value is related to the antibody concentration (the amount of antibody required for a particular experiment). The lower the KD value (the lower the concentration), the higher the affinity of the antibody. High-affinity antibodies are generally considered to be in the low nanomolar range (10⁻⁹).

[5] = molecular target: T4, TrKA receptor protein coated in ELISA (Examples 11 and 16) (human, UniProt P04629 33-423, limits assumed); assay: ELISA plateau, antibody up to 20 µg/mL on TrKA
T4 construct: also called Human-TrKA
Description: The TrkA receptor family belongs to receptor tyrosine kinases (RTKs), including TrkA, TrkB, and TrkC, which have high homology. TrkA is a receptor tyrosine kinase of nerve growth factor (NGF) that selectively binds to NGF and is a functional receptor for NGF. In addition to the high-affinity receptor TrkA, NGF can also bind to its low-affinity receptor p75. In the test, the binding of test antibodies at different concentrations (20 μg/mL, 10 μg/mL, 5 μg/mL, 2.5 μg/mL, 1.25 μg/mL, 0.625 μg/mL, 0.313 μg/mL, 0.156 μg/mL, 0.078 μg/mL, 0.039 μg/mL, 0.019 μg/mL) to TrKA, TrKB, TrKC, and P75 respectively was detected by the ELISA method, and the specificity of the test antibody binding to the target TrKA was evaluated. In the FIG. 8, at a certain antibody concentration, the OD₄₅₀ value reflects the binding strength of the antibody to the protein. The larger the reading, the stronger the binding of the antibody to the protein. […] It can be seen that the specificity of the binding of the test antibodies to the target TrKA is very good.

[6] = molecular target: T4, TrKA receptor protein coated in ELISA …; assay: competition ELISA: antibody titrated against biotinylated NGF binding to TrkA, OD450
[7] = molecular target: T2, TrkA protein on HEK-293T-TrkA cells or …; assay: flow cytometry on HEK-293T-TrKA cells
From the text: as §1

[8] = molecular target: T2, TrkA protein on HEK-293T-TrkA cells or …; assay: cell-based or functional assay

T3 sequence (P04629 33-423 limits assumed): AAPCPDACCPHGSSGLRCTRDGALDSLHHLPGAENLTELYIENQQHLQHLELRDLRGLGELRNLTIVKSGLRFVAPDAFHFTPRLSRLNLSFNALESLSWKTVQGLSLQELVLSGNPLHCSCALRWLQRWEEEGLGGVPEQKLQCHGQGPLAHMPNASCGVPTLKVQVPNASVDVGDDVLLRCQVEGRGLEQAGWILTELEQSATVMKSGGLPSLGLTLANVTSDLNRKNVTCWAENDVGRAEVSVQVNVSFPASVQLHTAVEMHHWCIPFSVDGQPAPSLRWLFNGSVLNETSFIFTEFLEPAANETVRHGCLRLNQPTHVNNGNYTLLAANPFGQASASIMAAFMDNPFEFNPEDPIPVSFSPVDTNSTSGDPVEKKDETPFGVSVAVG
T4 sequence (P04629 33-423 limits assumed): as above
T1 sequence (Q3UFB7 34-420 limits assumed): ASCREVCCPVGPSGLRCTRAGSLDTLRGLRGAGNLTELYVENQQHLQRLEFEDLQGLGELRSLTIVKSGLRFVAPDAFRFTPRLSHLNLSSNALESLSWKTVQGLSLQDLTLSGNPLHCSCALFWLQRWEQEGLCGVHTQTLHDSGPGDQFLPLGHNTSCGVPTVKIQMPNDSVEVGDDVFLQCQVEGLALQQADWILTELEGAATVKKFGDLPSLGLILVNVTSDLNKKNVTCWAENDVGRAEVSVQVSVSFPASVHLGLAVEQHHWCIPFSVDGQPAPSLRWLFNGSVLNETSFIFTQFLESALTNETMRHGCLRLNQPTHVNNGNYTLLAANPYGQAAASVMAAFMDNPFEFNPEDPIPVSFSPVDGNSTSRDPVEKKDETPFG
T2 sequence (P04629 33-796): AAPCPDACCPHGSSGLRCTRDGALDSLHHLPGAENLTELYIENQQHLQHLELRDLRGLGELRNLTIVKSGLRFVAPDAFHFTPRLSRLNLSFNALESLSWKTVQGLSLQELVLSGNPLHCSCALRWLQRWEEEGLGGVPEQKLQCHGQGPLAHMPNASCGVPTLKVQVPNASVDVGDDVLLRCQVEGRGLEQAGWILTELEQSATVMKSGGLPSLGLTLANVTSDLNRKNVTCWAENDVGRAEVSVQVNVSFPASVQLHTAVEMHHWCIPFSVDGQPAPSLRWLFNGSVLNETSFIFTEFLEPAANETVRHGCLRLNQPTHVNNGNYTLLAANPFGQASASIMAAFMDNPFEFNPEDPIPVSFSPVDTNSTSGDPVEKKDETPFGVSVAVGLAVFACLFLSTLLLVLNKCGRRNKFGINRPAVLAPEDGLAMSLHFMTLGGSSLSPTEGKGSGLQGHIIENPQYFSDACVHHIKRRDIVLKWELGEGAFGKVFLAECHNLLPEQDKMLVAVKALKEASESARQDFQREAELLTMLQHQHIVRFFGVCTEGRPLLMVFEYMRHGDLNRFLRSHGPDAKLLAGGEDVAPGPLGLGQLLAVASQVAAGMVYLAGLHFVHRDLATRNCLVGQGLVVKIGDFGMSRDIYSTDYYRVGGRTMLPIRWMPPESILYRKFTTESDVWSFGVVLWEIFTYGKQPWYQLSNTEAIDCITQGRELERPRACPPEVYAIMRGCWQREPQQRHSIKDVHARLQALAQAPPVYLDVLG

B2: 2A5 chimeric antibody (antibody, human IgG4 S228P, kappa, F234A L235A, V domains shown)
VH: EVQLQQSGPELVKPGASMKISCKASGYSFTGYTMNWVKQSHGKNLEWIGLINPYNGGTNYNQKFKGKATLTVDKSSSTAYMELLSLTSEDSAVYYCAFSYYGSRGFYFDYWGQGTTLTVSS
VL: QIVLTQSPALMSASPGEKVTMTCSATSSVSYIYWYQQKPRSSPKPWIYLTSNLASGVPARFSGSGSGTSYSLTISSMEAEDAATYYCQQWSSNPPTFGGGTKLEIKR
notes: expressed in CHO cells
IC50 [2]: 4.8 µg/mL
EC50 [3]: 0.312 µg/mL
Kd [4]: 0.0162 nM
koff [4]: 3.6e-06 s⁻¹
kon [4]: 222000 M⁻¹ s⁻¹
OD450 [5]: ~3 OD450
IC50 [6]: 1.06 µg/mL
EC50 [7]: < 1.5 µg/mL

B4: 2008 chimeric antibody (antibody, human IgG4 S228P, kappa, F234A L235A, V domains shown)
VH: EVLLQQSGPELVKPGASMKISCKASVYSFTAYTMNWVKQSHGKNLEWIGLINPHNGGTRYNQKFKGKATLTLDKSSSTAYMDLLSLTSEDSAVYYCAISRYGSSSFYFDVWGAGTTVAVSS
VL: QIVLSQSPAILSASPGEKVTMTCRASSSISYMHWYQQKPGSSPKPWISATSNLASGVPARFSGSGSGTSYSLTISGVEAEDAATYYCQQWSSNPPTFGGGTNLEIKR
notes: also called 20C8
IC50; p-TrkA level by AlphaLISA in NGF-stimulated NIH3T3-TrkA stable cell line [8]: 0.11 µg/mL
IC50 [2]: 0.822 µg/mL
EC50 [3]: 0.136 µg/mL
Kd [4]: 0.115 nM
koff [4]: 6.33e-05 s⁻¹
kon [4]: 551000 M⁻¹ s⁻¹
OD450 [5]: ~3 OD450
IC50 [6]: 0.31 µg/mL
EC50 [7]: < 1.5 µg/mL

B7: mouse monoclonal antibody produced by hybridoma clone 15D4 (antibody, V domains shown)
VH: QVQLQQSGAELMKPGASVKISCKATGYTFSSYWIEWVKQRPGHGLEWLGEFLPRSGKTNYNEEFRGKATFTADTSSNTAYMQLSSLTSEDSAVYYCARTDPPYFGVWGAGTMVAVSS
VL: QIVLTQSPPIMSASPGEKVTMTCSASSNISYMHWYQQKSGTSPKRWIYDTSKLASGVPARFSGSGSGTSYSLTISSMEAEDAATYYCQQWSSVPLTFGAGTKLEIK
notes: also called 15D4 (positive clone supernatant)
OD450 [1]: ~3.5 OD450

B9: mouse monoclonal antibody produced by hybridoma clone 21E5 (antibody, V domains shown)
VH: QVQLQQSGAELMKPGASMKISCKATGYTFSTYWIEWVKQRPGHGLEWIGENLPGRHITNYNEKFKGKATFTADTSSNTAYMQLSSLTSEDSAVYYCARGRGTYYFDYWGQGTPLTVSS
VL: DIVMTQAAFSTPVTLGTSASISCRSSQSLLHSNGITYLYWYLQKPGQSPQLLIYQMSNLASGVPDRFSSSGSGTDFTLRISRVEAEDVGVYYCAQNLEFPFTFGSGTKLEIK
notes: also called 21E5 (positive clone supernatant)
OD450 [1]: ~3.5 OD450

B11: MNAC13 (anti-TrKA monoclonal antibody, positive control) (antibody, human IgG4 S228P, kappa, F234A L235A, V domains shown)
VH: EVQLLESGGGLVQPGGSLRLSCAASGFTFSTYTMSWARQAPGKGLEWVAYISKGGGSTYYPDTVKGRFTISRDNSKNTLYLQMNSLRAEDSAVYYCARGAMFGNDFFFPMDRWGQGTLVTVSS
VL: DIVLTQSPSSLSASVGDRVTITCSASSSVSYMHWYQQKPGQAPKLLIYTTSNLASGVPSRFSGSGSGTDYTLTISSLQPEDVATYYCHQWSSYPWTFGGGTKVEIKR
IC50; p-TrkA level by AlphaLISA in NGF-stimulated NIH3T3-TrkA stable cell line [8]: 0.16 µg/mL

B12: 1B9 chimeric antibody (antibody, human IgG4 S228P, kappa, F234A L235A, V domains shown)
VH: QVHLQQSGAELMKPGASVKISCKATGYTFNIYWIDWVKQRPGHGLEWIGEILPGSGNTHYNENFKGKATMTADTSSNTAYMQLTSLTSEDSAVYYCARTDGRGYFDYWGQGTTLTVSS
VL: DIVLTQSPASLVVSLGQRATISCRTSKSVSSSAYSYMHWYQQKPGQPPKVLIYLASNLESGVPARFSGSGSGTDFTLNIHPVEEEDAATYYCQHSRELPFTFGSGTKLEIKR
notes: expressed in CHO cells
IC50; p-TrkA level by AlphaLISA in NGF-stimulated NIH3T3-TrkA stable cell line [8]: 0.0473 µg/mL
IC50 [2]: 0.334 µg/mL
EC50 [3]: 0.0372 µg/mL
Kd [4]: 0.899 nM
koff [4]: 0.000904 s⁻¹
kon [4]: 1.01e+06 M⁻¹ s⁻¹
OD450 [5]: ~3 OD450
EC50 [7]: < 1.5 µg/mL

Now from value to binder:

OD450 [1]: ~3.5 OD450
B1: mouse monoclonal antibody produced by hybridoma clone 27H3 (antibody, V domains shown)
VH: QVQLQQSGAELMKPGASVKISCKTTGYRFSSYWIEWVKQRPGHGLEWLGEILPGRGIINYNENFRGKATFTADTSSNTAYVQLSSLTSEDSAVYFCARTDPPYFGVWGAGTTVTVSS
VL: QAVVTQESALTTSPGETVTLTCRSSTGAVTISNYANWVQEKPDHLFTGLIGGTNNRPPGVPARFSGSLIGDKAALTITGAQTEDEAIYFCVLWYSNHWVFGGGTKLTVL
notes: also called 27H3 (positive clone supernatant)

binding result [1]: no binding
B3: mouse monoclonal antibody produced by hybridoma clone 2A5 (antibody, V domains shown)
VH: EVQLQQSGPELVKPGASMKISCKASGYSFTGYTMNWVKQSHGKNLEWIGLINPYNGGTNYNQKFKGKATLTVDKSSSTAYMELLSLTSEDSAVYYCAFSYYGSRGFYFDYWGQGTTLTVSS
VL: QIVLTQSPALMSASPGEKVTMTCSATSSVSYIYWYQQKPRSSPKPWIYLTSNLASGVPARFSGSGSGTSYSLTISSMEAEDAATYYCQQWSSNPPTFGGGTKLEIK
notes: also called 2A5 (positive clone supernatant)

binding result [1]: no binding
B5: mouse monoclonal antibody produced by hybridoma clone 2008 (antibody, V domains shown)
VH: EVLLQQSGPELVKPGASMKISCKASVYSFTAYTMNWVKQSHGKNLEWIGLINPHNGGTRYNQKFKGKATLTLDKSSSTAYMDLLSLTSEDSAVYYCAISRYGSSSFYFDVWGAGTTVAVSS
VL: QIVLSQSPAILSASPGEKVTMTCRASSSISYMHWYQQKPGSSPKPWISATSNLASGVPARFSGSGSGTSYSLTISGVEAEDAATYYCQQWSSNPPTFGGGTNLEIK

binding result [1]: no binding
B6: mouse monoclonal antibody produced by hybridoma clone 22D12 (antibody, V domains shown)
VH: EVQLQQSGPELVKPGASMKISCKASGYSITGYTMNWVKQSHGKNLEWIGLVNPYNGGTSYNQKFKGKATLTVDKSSSTAYMELLSLKSEDSAVYYCAISRYGSESWYFDVWGAGTTVTVSS
VL: QIVLSQSPAILSASPGEKVTMTCRATSSVSYMYWYQQKPGSSPKPWIYATSNLASGVPARFSGSGSGTSYSLTISRVEAEDAATYYCQQWSSNPPTFGGGTKLEKK
notes: also called 22D12 (positive clone supernatant)

binding result [1]: no binding
B8: mouse monoclonal antibody produced by hybridoma clone 4H4 (antibody, V domains shown)
VH: EVQLQQSGPELVKPGASMKISCKASGYSFTGYTMNWVKQSHGKNLEWIGLINPYNGGTRYNQKFKGKATLTVDKSSSTAYMELLSLTSEDSAVYYCASSSYRNDGNWYFDVWGAGTTVTVSS
VL: DIVMTQSPAIMSASPGEKVTMTCSASSSVSYMHWYQQKSGTSPKRWIYDTSKLASGVPARFSGSGSGTSYSLTISSMETEDAATYYCQQWSSNPPTFGGGTKLELK
notes: also called 4H4 (positive clone supernatant)

OD450 [1]: ~3.5 OD450
B10: mouse monoclonal antibody produced by hybridoma clone 23E12 (antibody, V domains shown)
VH: QVQLQQSGAELVRPGTSVKISCKASGYAFTNYWLGWMKQRPGHGLEWIGDFYPRTGNTFYNENFKGKVTLTADKSSNTAYMQLSSLTSEDSAVYLCARAGTGFDYWGQGTTLTVSS
VL: SIVMTQSPKSMSMSVGERVTLSCKASENVGGYVSWYQQKPDQSPKLLIYGASSRHTGVPDRFTGSGSETDFTLTISSVQAEDLAAYHCGQNYIYPFTFGGGTKLEIK
notes: also called 23E12 (positive clone supernatant)

binding result [1]: no binding
B13: mouse monoclonal antibody produced by hybridoma clone 1B9 (antibody, V domains shown)
VH: QVHLQQSGAELMKPGASVKISCKATGYTFNIYWIDWVKQRPGHGLEWIGEILPGSGNTHYNENFKGKATMTADTSSNTAYMQLTSLTSEDSAVYYCARTDGRGYFDYWGQGTTLTVSS
VL: DIVLTQSPASLVVSLGQRATISCRTSKSVSSSAYSYMHWYQQKPGQPPKVLIYLASNLESGVPARFSGSGSGTDFTLNIHPVEEEDAATYYCQHSRELPFTFGSGTKLEIK
notes: also called 1B9 (positive clone supernatant)
